Amyloid nucleation score data for 106 substances are collected here from the supplement of paper PMC12042874.

± gives the uncertainty stated by the source.

The data set is described as follows: amyloid nucleation score (Sup35N fusion, yeast selection) (log enrichment); library NNK1; higher = more nucleation; inactive = no reads after selection. A digest of the protocol: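 The nucleation score equals the log enrichment of output over input reads from DiMSum, centred on the mode score of non-aggregating sequences. It was computed only for sequences with 100 or more input reads. The reads came from Illumina sequencing of plasmid inserts from psi-negative yeast expressing Sup35N fused to peptides of 20 random codons, induced with 100 μM copper sulfate for 24 hours and grown 7 days at 30°C without adenine and uracil.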
In turn, VTLTYNYVRRTHMRRDVVAK showed an amyloid nucleation score of 0.6 ± 0.34.
The value for VTSWQIDKLPWASANSLFWL was 0.334 ± 0.27; that for VTTYLG was -0.499 ± 0.74.
In turn, VTVLSSVLIL registered an amyloid nucleation score of 0.332 ± 0.27.
The value for VTVTYIRCTR was 1.25 ± 0.63.
The value for VVDVHVSFRCLFKMGV was 1.51 ± 0.4; that for VVDVQALSWSRGADLSSW was 1.02 ± 0.68; that for VVEFCCVQT was -1.53 ± 1.7.
To VVEIWR belongs 0.655 ± 0.6; to VVGSMVRSGLGPQPMTS, 1.08 ± 0.68.
VVIVN had an amyloid nucleation score of 0.439 ± 0.47.
The value for VVLPWSFIWRCGVERQ was -0.812 ± 0.42; that for VVMYRALTNHN was 0.949 ± 0.59; that for VVQGVTCSLIMYSTRNCLFR was -0.444 ± 1.6.
The value for VVRAFLTLILAVIDEENGSE was -1.42 ± 2.7.
The value for VVRPAPRDKPTGPSLCLWGN was 0.086 ± 0.42.
As to VVSMSQEVEAPRAPHMAAFK, the amyloid nucleation score came to 0.25 ± 0.53.
The value for VVSNVPVWTSGYYHHCCHRC was 0.856 ± 0.79; that for VVSSRSIMGTVRMNEKVVAT was -0.563 ± 0.46.
In turn, VVTRWLASNNDGGIESLLIK showed an amyloid nucleation score of 0.132 ± 0.33.
The value for VVVSLK was -0.916 ± 0.86.
VWARVMNAYFDTSH showed an amyloid nucleation score of -1.22 ± 2.4.
As to VWFCIYAFVHSYGLYVVSMV, the amyloid nucleation score was -0.03 ± 0.31.
To VWFFQNNVNFSDKQ belongs 8.011 ± 0.045.
To VWIICQHGG belongs 4.09 ± 0.11; to VWLPYIFIDTSY, “inactive”; to VWPAQGS, -0.325 ± 0.8.
The substance VWRHGHNELRIRYAVSLYM returned an amyloid nucleation score of 0.608 ± 0.46.
Regarding VWRSFSGNITCMLFYNFPVR, the amyloid nucleation score is -0.621 ± 0.95.
The value for VWSKVLGSGRWSVVRGRAWR was 1.63 ± 0.21; that for VWSNMCFLIDSI was -0.491 ± 0.3; that for VWVHKAY was -0.021 ± 1.2.
To VWYVLMSSSVTYYLSR belongs -0.075 ± 0.55; to VYEYFRLAGGAIQIAGIPVA, -0.002 ± 0.72.
The value for VYFGRISLWLNMH was -0.449 ± 0.59.
In the case of VYGVRAIR, the amyloid nucleation score came to 0.503 ± 0.61.
To VYHIYDG belongs -0.662 ± 0.43.
To VYLFSVLVDVSRMSNGMLTR belongs -0.211 ± 1.2; to VYLKKSLFL, -0.484 ± 0.9; to VYMSIRYRGSDNIRICVSVR, -0.13 ± 0.43.
To VYSQINSRHWEFMDLELSLG belongs 0.147 ± 0.93; to VYSYYLLLGLW, 3.66 ± 0.084; to VYVVGLFQLVSITFLCRITV, 0.153 ± 0.22.
Substance VYYYVNTVCWSARFHVGSGR displayed an amyloid nucleation score of -0.561 ± 0.74.
The value for WAIFLVR was -2.31 ± 2.4.
Consider WASGRGSSVRIKQLPHDRQQ, for which the amyloid nucleation score was -0.779 ± 0.43.
WAVGVRSQLWVARQAKVMGG showed an amyloid nucleation score of 0.741 ± 0.69.
The value for WAYVAALRGYCYVGGRYLYT was -0.91 ± 1.2; that for WCCGLCVLMQLNTVMLSKGL was 5.33 ± 0.066.
To WCMGHNSYYVKEIVIDVLWL belongs “inactive”.
On to WCTATGVSRFTMGIKTCHCL, for which the amyloid nucleation score was found to be 0.738 ± 0.38.
The value for WCTTVRIRLYGSSIWRLFGA was 0.76 ± 0.45.
Regarding WCVWFVQISCMVRVGAKLNS, the amyloid nucleation score amounted to 0.184 ± 0.38.
Turning to WCYVYRSRRVSMTSWVLRTQ, the amyloid nucleation score was 0.19 ± 0.26.
The value for WDAHGDIVKG was 0.877 ± 1; that for WDALLPLPAEFAYRATTMHA was 0.444 ± 1.1.
For the substance WDKFC, the amyloid nucleation score is -1.16 ± 0.88.
The value for WDKWI was 0.418 ± 0.49.
The value for WDTTVWMIPFNARVFFVGLC was -0.083 ± 0.35; that for WETWYSVCYAIEIRSYKIRV was -1.3 ± 1.
To WFEVNSACQLSNLGGLTEFR belongs -0.417 ± 1.4; to WFFVDSVYIRNKFSLEKGSA, 7.494 ± 0.052; to WFTAFARK, 3.41 ± 0.11.
In turn, WFVNWWEYVL had an amyloid nucleation score of 0.042 ± 0.9.
To WGDLHRMVMISREVEPVSNI belongs -0.361 ± 0.78.
As for WGICAVLHLMTIIGLIRVER, the amyloid nucleation score entry was “inactive”.
The value for WGMIWCTIYGSVSNNNINLV was 4.2 ± 0.053.
To WGTPLMV belongs 0.31 ± 0.63.
To WHELRMCIVMDFLLMLQKMI belongs 1.79 ± 0.44; to WIFIGTIPILLIGDRRSANV, 6.35 ± 0.066; to WIFQY, 1.43 ± 0.72.
WINKYYDLN yielded an amyloid nucleation score of 0.472 ± 0.42.
To WITTMHNLHELNHRGPPPKL belongs -0.972 ± 1.8; to WIVCCMWVYVLSLQL, -1.06 ± 0.4; to WIVHCVEFALYGLGF, 1.33 ± 0.79.
The value for WIWYFLGRGGYVACRSTKVW was 0.016 ± 1.2; that for WKDRPRVCLFMLLNENGRQM was -0.831 ± 1.2; that for WKFALSLTRSDWAGHGPGHE was 2.02 ± 0.16.
The value for WKGLRYLNFYFTE was 4.52 ± 0.059; that for WKLPWALSRPVKYRYHEVGR was 0.225 ± 0.43; that for WLDAVGMAAG was -0.989 ± 2.7.
Substance WLGVNDSLGFICEAVGWYGW showed an amyloid nucleation score of 0.604 ± 0.63.
The value for WLGYMDMDNGARQNQYSETG was -0.942 ± 1.4.
The value for WLIQE was 1.24 ± 0.71.
The value for WLLREIERMDLGDWQLELNI was -0.707 ± 0.83; that for WLSGYKSQMVK was -0.291 ± 0.78; that for WLSSLARIWSRQMREYNS was 0.64 ± 0.44.
Substance WLTKSEN had an amyloid nucleation score of -0.151 ± 0.27.
To WLVLTMS belongs 0.086 ± 0.36; to WMTHWVLSYTTNLLIWVHGW, 0.005 ± 1.2.
To WMTTEIRRAIIEIRSVLWTS belongs 0.33 ± 0.55; to WMVSSVIRARGL, 3.23 ± 0.12.
The value for WMYDSLDTSMTLANSHLQTL was -0.098 ± 0.51; that for WNFLFSCLMLGSSWMACDWQ was -0.305 ± 0.76.
On to WNIGYNFVSDSLPPRNYFVE, for which the amyloid nucleation score was -0.198 ± 0.37.
To WNISSTFGYGNHWLG belongs 0.816 ± 0.52; to WNMFGS, 0.848 ± 0.29; to WNNVGNTCMEPRSSLGCTLR, 0.147 ± 0.51.
Consider WNQIAYNYRMLMLYFVTHYW, for which the amyloid nucleation score came out at 0.327 ± 0.5.
The value for WNRFRIMQLDITG was 0.103 ± 0.22; that for WNSFTELRAHMLYHLKKIII was 1.72 ± 0.22; that for WNSSFLHRLWEGSNLSARCC was “inactive”.
To WNTMWRHLGIYFKY belongs 0.249 ± 0.38; to WPCPVVRFLPWKNYISGYSF, 0.392 ± 0.64.
Substance WPGFLSRWIRLRLDWSHEV displayed an amyloid nucleation score of -1.06 ± 1.1.
For WQCDLNDLLVCTFSMLGYGR, the amyloid nucleation score was -1.05 ± 1.7.
